How the values were obtained:
Assay in all cases: MST; Monolith NT.115; TaMTB labelled with the protein labelling kit RED in PBS, ligand (NIb) in a concentration gradient; Kd-Fit; three repeats
[1] = biological target: TaMTB(SNP176^C) protein purified from E. coli (Triticum aestivum)
[2] = biological target: TaMTB-His (from E. coli) (Triticum aestivum (cv. Yangmai158 cDNA))
[3] = biological target: TaMTB(SNP176^A) protein purified from E. coli (Triticum aestivum)

B1: NIb protein purified from E. coli (natural protein)
chain: ASDILSKINNSILGFGSDLKGQLVQPITPALRTRFEALFGGGSFELVGTMNKGLIDKHTIVGENDNVHDFMREHPTFAWLQGFMDEYAPSVLNYTAYYKDLCKYNRKKHQLSFNPHELRSATAGMIRMLEDAGLTQGDVRTPQQVVSDMQWNTSAGPSYQGKKRDVCAHLSEQEVLHLAETSRQQFLACNSIGIWNGSLKAELRTIEKVEAEKTRVFTASPITSLFAMKFYVDDFNKKFYATNLKAPHTVGINKFSRGWEMLHDKLNRPGWLHGSGDGSRFDSSIDPFFFDIIKEIRKHFLPVEHHRAIDLIYDEILNTNICLANGMVIRKNVGNNSGQPSTVVDNTLVLMVSFLYAYIHKTGDHMLKKLNDRFVFVCNGDDNKFAISPEFDAEFGHDFSPELTELGLTYEFDDITDDICANPYMSLTMVRTPFGIGFSLPVERIVAIMQWAKKGGVLHSYLAGISAIYESFNTPKLFKSVYAYLLWLTEEHGSDILAAMTGTATALPIPSMLDVYRLHYGDSSIELQ
modifications: not checked
Binder B1 has a Kd [1] of 0.11 µM, a Kd [2] of 1.12 µM and a Kd [3] of 0.73 µM.
